Experimental findings from article PMC7351599 are described below.

The assay deals with TMIEdel80–100-HA (UniProt Q8K467). The assay can be described thus: co-IP.

B1: MYC-TMC1 (natural protein)
chain: MLQIQVEEKEEDTEESSSEEEEDKLPRRESLRPKRKRTRDVINEDDPEPEPEDEETRKAREKERRRRLRRGAEEEEEIDEEELERLKALLDENRQMIATVKCKPWKMEKKIEVLKEAKKFVSENEGALGKGKGKKWFAFKMMMAKKWAKFLRDFENFKAACVPWENKIKAIESQFGSSVASYFLFLRWMYGVNMVLFVLTFSLIMLPEYLWGLPYGSLPRKTVPRAEEASAANFGVLYDFNGLAQYSVLFYGYYDNKRTIGWLNFRLPLSYFLVGIMCIGYSFLVVLKAMTKNIGDDGGGDDNTFNFSWKVFCSWDYLIGNPETADNKFNSITMNFKEAIIEERAAQVEENIHLIRFLRFLANFFVFLTLGASGYLIFWAVKRSQEFAQQDPDTLGWWEKNEMNMVMSLLGMFCPTLFDLFAELEDYHPLIALKWLLGRIFALLLGNLYVFILALMDEINNKIEEEKLVKANITLWEANMIKAYNESLSGLSGNTTGAPFFVHPADVPRGPCWETMVGQEFVRLTVSDVLTTYVTILIGDFLRACFVRFCNYCWCWDLEYGYPSYTEFDISGNVLALIFNQGMIWMGSFFAPSLPGINILRLHTSMYFQCWAVMCCNVPEARVFKASRSNNFYLGMLLLILFLSTMPVLYMIVSLPPSFDCGPFSGKNRMFEVIGETLEHDFPSWMAKILRQLSNPGLVIAVILVMVLTIYYLNATAKGQKAANLDLKKKMKQQALENKMRNKKMAAARAAAAAGGQ
B1 showed a percent reduction of co-IP against TMIE-HA of 80%.
